Here are results for 1 molecule from patent US20060029546A1 (DECODE GENETICS, published 2006).

Assay [1] deals with T1, ErbB4 K751A bait (cytoplasmic domain, mutation in the ATP binding site) (human, UniProt Q15303 676-1308).
T1 construct: not shown: fusion partner encoded by the bait vector
The assay can be described thus: yeast two-hybrid growth assay. From the text: (§1) To characterize components of the NRG1 signaling pathway downstream of the ErbB4 receptor tyrosine kinase, the predominant neuronal receptor for NRG1, the cytoplasmic domain of ErbB4 was used as a bait in a yeast two-hybrid interaction screen. The ErbB4 bait was created by cloning the entire cytoplasmic domain into the vector pGBKT7 (Clontech, Palo Alto, Calif.) using homologous recombination in the yeast strain AH109 (Clontech, Palo Alto, Calif.). Liner vector and the cytoplasmic fragment of ErbB4 were transfected into the yeast strain using the lithium acetate (LiAc) method and plated onto […] negative selection media plates. Plasmid DNA was isolated from positive colonies and the presence of ErbB4 was verified by sequencing.
(§2) The ErbB4 bait was capable of tyrosine auto-phosphorylation in yeast cells. Tyrosine phosphorylation was absent from ErbB4 baits which contained mutations in the ATP binding site (K751A) or the catalytic site (D843A). Homo sapiens random prime hippocampus cDNA library was created using the ZAP-cDNA Gigapack III Gold Cloning Kit (Stratagene) and transformed into yeast using Li Acetate. Screening of a human hippocampus cDNA library yielded a partial cDNA clone comprising the SH2 and SH3 domains of Fyn (amino acids 60-252 of SEQ ID NO: 3). SH2 domains are protein modules able to bind phosphorylated tyrosine residues. […]

The target in assay [2] is T2, ErbB4 D843A bait (cytoplasmic domain, mutation in the catalytic site) (human, UniProt Q15303 676-1308).
T2 construct: not shown: fusion partner encoded by the bait vector
The assay can be described thus: yeast two-hybrid growth assay.
From the text: as §1, §2

B1: partial cDNA clone comprising the SH2 and SH3 domains of Fyn (amino acids 60-252) (enzyme)
chain: not shown
notes: The clone came from a human hippocampus cDNA library; also called Fyn clone; p59Fyn; not shown: fusion partner of the yeast two-hybrid library (prey) vector
As to B1, the binding result in assay [1] and in assay [2] was “no binding” throughout.
